Assay results: patent publication US20090297501A1

Biological target: monkey Mpl (monkey)

- EC50 (read off the curve) (growth of BaF3-monkey Mpl cells, WST-8) [B]: 0.01 nM
Substance: hTPO (ligand)
